Reference: patent US20210171647A1 (WUXI BIOLOGICS SHANGHAI, published 2021)
Numbering of substitutions follows the chain as printed.

Tests used:
Experiment in all cases: ELISA, antibody coated, OX40-ECD.His mutant supernatant; relative to silent alanine substitutions;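 further: captured OX40 mutant protein detected with HRP-labelled anti-His antibody, absorbance read-out, scaled to the mean signal of control mutants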
human OX40-ECD.His P121A = biological target: T1, human OX40-ECD.His P121A (human, UniProt P43489 29-214)
T1 construct: extracellular domain; not shown: C-terminal His-tag
T1 sequence (looked up): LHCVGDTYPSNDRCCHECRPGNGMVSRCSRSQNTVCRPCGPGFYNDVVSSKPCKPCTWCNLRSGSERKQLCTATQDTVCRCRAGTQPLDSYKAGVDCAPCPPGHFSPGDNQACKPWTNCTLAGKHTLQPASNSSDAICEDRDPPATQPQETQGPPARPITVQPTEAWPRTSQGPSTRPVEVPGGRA

human OX40-ECD.His D40A = biological target: T2, human OX40-ECD.His D40A (human, UniProt P43489 29-214)
T2 construct: extracellular domain; not shown: C-terminal His-tag
T2 sequence (looked up): T1 sequence (looked up) with D12A, A93P

human OX40-ECD.His R41A = biological target: T3, human OX40-ECD.His R41A (human, UniProt P43489 29-214)
T3 construct: extracellular domain; not shown: C-terminal His-tag
T3 sequence (looked up): T1 sequence (looked up) with R13A, A93P

human OX40-ECD.His G151A = biological target: T4, human OX40-ECD.His G151A (human, UniProt P43489 29-214)
T4 construct: extracellular domain; not shown: C-terminal His-tag
T4 sequence (looked up): T1 sequence (looked up) with A93P, G123A

human OX40-ECD.His D163A = biological target: T5, human OX40-ECD.His D163A (human, UniProt P43489 29-214)
T5 construct: extracellular domain; not shown: C-terminal His-tag
T5 sequence (looked up): T1 sequence (looked up) with A93P, D135A

human OX40-ECD.His R47A = biological target: T6, human OX40-ECD.His R47A (human, UniProt P43489 29-214)
T6 construct: extracellular domain; not shown: C-terminal His-tag
T6 sequence (looked up): T1 sequence (looked up) with R19A, A93P

human OX40-ECD.His N61A = biological target: T7, human OX40-ECD.His N61A (human, UniProt P43489 29-214)
T7 construct: extracellular domain; not shown: C-terminal His-tag
T7 sequence (looked up): T1 sequence (looked up) with N33A, A93P

human OX40-ECD.His N146A = biological target: T8, human OX40-ECD.His N146A (human, UniProt P43489 29-214)
T8 construct: extracellular domain; not shown: C-terminal His-tag
T8 sequence (looked up): T1 sequence (looked up) with A93P, N118A

human OX40-ECD.His R169A = biological target: T9, human OX40-ECD.His R169A (human, UniProt P43489 29-214)
T9 construct: extracellular domain; not shown: C-terminal His-tag
T9 sequence (looked up): T1 sequence (looked up) with A93P, R141A

human OX40-ECD.His R58A = biological target: T10, human OX40-ECD.His R58A (human, UniProt P43489 29-214)
T10 construct: extracellular domain; not shown: C-terminal His-tag
T10 sequence (looked up): T1 sequence (looked up) with R30A, A93P

B1: 1.134.9-u1-IgG1L (antibody, V domains shown)
VH: QVQLQESGPGLVKPSGTLSLTCAVSGGSISSYNWWSWVRQPPGKGLEWIGEIYHGGNTNYNPSLKSRVTMSVDNSKNQFSLKLSSVTAADTAVYYCARAPGDWGGSPYFDFWGQGTLVTVSS
VL: SSELTQDPAVSVALGQTVRITCQGDNLRTYYASWYQQKPGQAPILLIYGRNKRPSGIPDRFSGSSSGNTASLTITGAQAEDEAAYYCNSRDSSGNPVVFGGGTKLTVL
notes: fully human IgG1, lambda
- Fold Change (human OX40-ECD.His P121A): 0.974
- Fold Change (human OX40-ECD.His D40A): 0.994
- Fold Change (human OX40-ECD.His R41A): 0.958
- Fold Change (human OX40-ECD.His G151A): 0.742
- Fold Change (human OX40-ECD.His D163A): 0.318
- Fold Change (human OX40-ECD.His R47A): 1
- Fold Change (human OX40-ECD.His N61A): 0.99
- Fold Change (human OX40-ECD.His N146A): 0.73
- Fold Change (human OX40-ECD.His R169A): 1
- Fold Change (human OX40-ECD.His R58A): 1
